Results from patent US20050064420A1, “Methods for identifying, isolating, and controlling the growth of estrogen-responsive cells” (Dana-Farber Cancer Institute, Inc., priority 2001, published 2005).

B1: lipocalin 2: Secreted human protein; expressed from pCEP4-lipocalin-HA with C-terminal double hemagglutinin tag, or supplied in conditioned medium (protein, UniProt P80188 21-198, looked up)
Neutrophil …: QDSTSDLIPAPPLSKVPLQQNFQDNQFQGKWYVVGLAGNAILREDKDPQKMYATIYELKEDKSYNVTSVLFRKKKCDYWIRTFVPGCQPGEFTLGNIKSYPGLTSYLVRVVSTNYNQHAMVFFKKVSQNREYFKITLYGRTKELTSELKENFIRFSKSLGLPENHIVFPVPIDQCIDG
modifications: C-terminal double HA tag
notes: Secreted human protein; expressed from pCEP4-lipocalin-HA with C-terminal double hemagglutinin tag, or supplied in conditioned medium

Legend:
[1] = tested on: estrogen receptor expressing human breast cancer cell lines; type: cell-based
Protocol: Profiles for untreated (filled) and estrogen treated cells (unfilled) infected with the Ad-25ERE-GFP adenovirus are shown.
To assay estrogen responsiveness, cells were cultured in estrogen-free medium (phenol red-free RPMI1640 or DMEM/F12 medium (Life Technologies, Rockville, Md.) supplemented with charcoal/dextran treated fetal bovine serum (cd FBS; 5%) (Hyclone, Logan, Utah)) for 7 days. The cells were tested in fresh estrogen-free medium or fresh estrogen-free medium supplemented with 10 nM estradiol or 10 μM 4-hydroxy-tamoxifen. Cells were collected after 16-24 hours of hormone treatment.
For fluorescence microscopy analysis breast cancer cell lines were infected with Ad-25ERE-GFP virus at a MOI (multiplicity of infection) of ˜100 and treated with hormones as described above.
By infecting mammary epithelial cells with the Ad-25ERE-GFP adenovirus, it was possible to isolate ER+ estrogen responsive cells based on GFP expression. […] Ad-25ERE-GFP was then used to infect various estrogen receptor expressing human breast cancer cell lines in the presence of estrogen or tamoxifen or in the absence of hormone (FIG. 1B).

[2] = tested on: ER+ breast cancer cell lines (MCF-7 and T47D); assay: Colony assay after transfection with lipocalin 2 expression vector (pCEP4-lipocalin-HA), hygromycin selection; type: cell-based, human; conditions: lipocalin 2 expression vs control vector pCEP4; 2 weeks hygromycin selection; crystal violet staining
Description: (§1) FIG. 3D is a bar graph showing the numbers of colonies that were obtained after drug (hygromycin) selection (for 2 weeks) of estrogen receptor (“ER”) expressing (“Positive”) MCF-7 and T47D breast cancer cells, estrogen receptor non-expressing (“Negative”) BT549 and MTA-MB-435S breast cancer cells, and estrogen receptor non-expressing (“Negative”) MCF10A normal immortalized mammary epithelial cells that had all been transfected with either a control expression vector (“CEP”) or an expression vector containing cDNA encoding human lipocalin 2 fused at its C-terminus to a double hemagglutinin tag (“LIPO”). The experiments were carried out in T25 tissue culture flasks and the data are expressed as the number of “Colonies/T25 flask”.
(§2) cDNA encoding human lipocalin 2 was amplified by PCR and the isolated PCR product was cloned into the pCEP4 (Invitrogen, Carlsbad, Calif.). The resulting vector (pCEP4-lipocalin-HA) expresses lipocalin-2 with a double hemaglutinnin (HA) tag at its C-terminus. For colony assays, cells were transfected with pCEP4 (control) or pCEP4-lipocalin-HA using FuGene6 (Roche, Indianapolis, Ind.). Transfectants were selected in hygromycin-containing medium for 2 weeks after which colonies were visualized by crystal violet staining. Expression of the lipocalin 2-HA fusion protein was confirmed by western blot analysis (using an antibody specific for HA (Covance, Richmond, Calif.)) of cell lysate and medium from T47D cells transfected with pCEP4 or pCEP4-lipocalin-HA constructs.
(§3) Lipocalin 2 is a secreted protein and could thus be a paracrine factor expressed by NER+ cells that affects the surrounding mammary epithelial cells. In order to determine the effect of lipocalin 2 expression on mammary cell growth, colony growth assays were performed in various ER− and ER+ breast cancer cell lines and in MCF10A cells (FIG. 3D). […] In MCF10A immortalized ER− normal mammary epithelial cells a small increase in the number of colonies (18 vs. 7 colonies) was also observed following lipocalin 2 transfection (FIG. 3D). […]

[3] = tested on: ER- breast cancer cell line BT549; assay: as above; type: cell-based, human; conditions: lipocalin 2 expression vs control vector pCEP4, 2 weeks hygromycin selection
Description: as §1, §2, §3

[4] = tested on: MCF10A immortalized ER- normal mammary epithelial cells; assay: as above; type: cell-based, human; conditions: following lipocalin 2 transfection (control vector: 7 colonies), T25 flask
Description: as §1, §2, §3

MCF10A cells = assay: Colony assay with lipocalin 2 conditioned medium; type: cell-based, human; conditions: conditioned medium from cells expressing lipocalin 2 vs GFP, seven days of culture
Protocol: (§4) FIG. 4 is a bar graph showing the number of colonies that were obtained after culturing estrogen receptor expressing 747D breast cancer cells and estrogen receptor non-expressing MCF10A normal immortalized mammary epithelial cells with conditioned medium from […] cells recombinantly expressing either GFP (“GEP”) or lipocalin 2 (“LIPO”). The experiments were carried out in the wells of 6-well tissue culture plates. Data, which are expressed as “Colonies/well”, from experiments carried out in medium supplemented with 5% fetal bovine serum (“5% FBS”) or 0.2% fetal bovine serum (“0.2% FBS”) are shown.
(§5) For experiments to test for cell growth regulatory activity in secreted lipocalin 2, conditioned medium was generated by infecting COS7 cells with replication-defective adenoviruses expressing either GFP or lipocalin 2. Filtered medium collected 3-4 days after infection was applied to T47 or MCF10A cells. Colonies were visualized by crystal violet staining after seven days of culture.
(§6) Lipocalin 2 is a secreted protein and could thus be a paracrine factor expressed by NER+ cells that affects the surrounding mammary epithelial cells. In order to determine the effect of lipocalin 2 expression on mammary cell growth, colony growth assays were performed in various ER− and ER+ breast cancer cell lines and in MCF10A cells (FIG. 3D). […]

T47D cells = assay: Colony assay with lipocalin 2 conditioned medium; type: cell-based, human; conditions: conditioned medium from cells expressing lipocalin 2 vs GFP, seven days of culture
Protocol: as §4, §5, §6

Row | Molecule | GFP expression [1] | colony numbers [2] | colony numbers [3] | number of colonies [4] [colonies] | growth (colonies) with exogenous lipocalin 2 (MCF10A cells) | growth (colonies) with exogenous lipocalin 2 (T47D cells)
1 | C[C@]12CC[C@@H]3c4ccc(O)cc4CC[C@H]3[C@@H]1CC[C@@H]2O [estrogen, estradiol] | high GFP expression |  |  |  |  | 
2 | B1 |  | dramatically suppressed colony numbers | small but significant increase in colony numbers | 18 | enhanced | inhibited
